Experimental data taken from publication PMC9481563, “Structural insights into the pSer/pThr dependent regulation of the SHP2 tyrosine phosphatase in insulin and CD28 signaling” (Nature Communications, 2022).

Target: PTP1B catalytic domain, inactive C215S mutant (1-229 as printed) (human) (UniProt P18031)
Test: fluorescence polarisation; competitive titration: labelled CF-ppIRS1 and protein both fixed (50-80% saturation), unlabelled competitor peptide varied; triplicates; Kd from cubic fit

Sequence of PTP1B catalytic domain, inactive C215S mutant (1-229 as printed) (human) (P18031 1-229 C215S): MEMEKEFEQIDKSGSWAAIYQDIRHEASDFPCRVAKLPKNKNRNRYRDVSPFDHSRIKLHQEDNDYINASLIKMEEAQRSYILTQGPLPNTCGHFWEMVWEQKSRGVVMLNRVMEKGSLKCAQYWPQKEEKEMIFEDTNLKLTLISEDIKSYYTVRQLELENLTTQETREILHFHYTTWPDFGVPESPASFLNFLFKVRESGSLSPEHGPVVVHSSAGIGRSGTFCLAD

Row | fold increase of binding over p0CD28 | fold increase of binding over p0IRS1 | Substance
1 | 2 fold |  | ppCD28, CD28 peptide dually phosphorylated (pY191 + pT195)
2 |  | 19 fold | ppIRS1, IRS1 peptide dually phosphorylated (pY632 + pS636)
